Values of other authors in patent US20230192878A1, “METHODS, THERAPIES AND USES FOR TREATING CANCER” (PFIZER INC., priority 2020, published 2023).

Biological target: T1, BCMA (Homo sapiens, UniProt Q02223)
T1 sequence (Q02223 1-184): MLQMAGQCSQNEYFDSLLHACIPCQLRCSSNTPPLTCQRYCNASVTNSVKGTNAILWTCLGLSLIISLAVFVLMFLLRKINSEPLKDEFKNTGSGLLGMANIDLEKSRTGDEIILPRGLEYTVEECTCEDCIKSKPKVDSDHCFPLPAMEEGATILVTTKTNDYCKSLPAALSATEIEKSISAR
Settings: binding to BCMA; read-out: affinity; cited from earlier work

Substance | Kd [nM]
APRIL: a proliferation-inducing ligand, ligand of BCMA | 16
BAFF: B-cell activation factor, ligand of BCMA | 1000
